# Source: the supplement of paper PMC10598134
# ± gives the standard deviation.
# Test: collision cross section of modified peptide (TIMS, N2, iRT-aligned); higher = larger / more extended gas-phase ion
# How it was run: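 Collision cross section values rest on the Mason-Schamp equation applied to calibrated, run-aligned mobility data from synthetic peptides. Mobility (1/K0) was calibrated with three reference ions and aligned per run to the median iRT peptide deviation, and 1–3 technical replicates of the most abundant feature per charge state were averaged. Data came from a timsTOF Pro/HT in dda-PASEF mode (nitrogen, ~2.4 mbar) after a 120-min nanoflow C18 gradient at 60 °C.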
# [1] = charge state: 2, modification: Succinyl
# [2] = charge state: 3, modification: Succinyl
# [3] = charge state: 2, modification: hydroxyisobutyryl
# [4] = charge state: 2, modification: Trimethyl (K)
# [5] = charge state: 3, modification: Trimethyl (K)
# [6] = charge state: 2, modification: Phospho (Y)
# [7] = charge state: 2, modification: Malonyl
# [8] = charge state: 2, modification: GlyGly (K)
# [9] = charge state: 3, modification: GlyGly (K)
# [10] = charge state: 2, modification: Butyryl
# [11] = charge state: 3, modification: Phospho (Y)
# [12] = charge state: 2, modification: Propionyl
# [13] = charge state: 2, modification: HexNAc (ST)
# [14] = charge state: 2, modification: Crotonyl
# [15] = charge state: 2, modification: Formyl
sequence,measurement,setting,value
PASGAGAGAGAGKR [_PASGAGAGAGAGK(Succinyl)R_],collision cross section,[1],354.83 ± 0.23 Å²
same,collision cross section,[2],462.42 ± 2 Å²
LQLEIDQKK [_LQLEIDQK(hydroxyisobutyryl)K_],collision cross section,[3],371.26 ± 0.27 Å²
TPNLYIYSKK [_TPNLYIYSK(Trimethyl (K))K_],collision cross section,[4],381.37 ± 0.61 Å²
same,collision cross section,[5],442.31 Å²
DLTTAGAVTQCYR [_DLTTAGAVTQCY(Phospho (Y))R_],collision cross section,[6],405.28 ± 0.061 Å²
LGSPSGKTGTCR [_LGSPSGK(Malonyl)TGTCR_],collision cross section,[7],365.24 ± 0.013 Å²
VIVGGSSEYK [_VIVGGSSEY(Nitro (Y))K_],collision cross section,"charge state: 2, modification: Nitro (Y)",344.24 ± 0.72 Å²
SGKFTQQDIDEAK [_SGK(GlyGly (K))FTQQDIDEAK_],collision cross section,[8],414.34 ± 1.9 Å²
same,collision cross section,[9],476.61 ± 1.1 Å²
GAEKTEVAEPR [_GAEK(Butyryl)TEVAEPR_],collision cross section,[10],380.97 ± 1.3 Å²
YTQVGPDHNR [_Y(Phospho (Y))TQVGPDHNR_],collision cross section,[6],363.13 ± 0.064 Å²
same,collision cross section,[11],430.78 Å²
SSGPGGQNVNKVNSK [_SSGPGGQNVNK(Acetyl (K))VNSK_],collision cross section,"charge state: 2, modification: Acetyl (K)",401.59 ± 1.4 Å²
same,collision cross section,"charge state: 3, modification: Acetyl (K)",440.11 ± 2.5 Å²
ISALQGKLSK [_ISALQGK(Propionyl)LSK_],collision cross section,[12],357.21 ± 0.33 Å²
DESFLGKLGGTLAR [_DESFLGK(Butyryl)LGGTLAR_],collision cross section,[10],417.73 ± 0.53 Å²
same,collision cross section,"charge state: 3, modification: Butyryl",494.35 ± 3.3 Å²
AQPSASLGVGYR [_AQPSAS(HexNAc (ST))LGVGYR_],collision cross section,[13],394.91 ± 0.63 Å²
VVPGYGHAVLR [_VVPGY(Phospho (Y))GHAVLR_],collision cross section,[6],386.55 ± 0.062 Å²
same,collision cross section,[11],451.71 Å²
PANEKATDDYHYEK [_PANEK(Methyl (K))ATDDYHYEK_],collision cross section,"charge state: 3, modification: Methyl (K)",492.44 ± 0.72 Å²
ATVASSTQKFQDLGVK [_ATVASSTQK(Biotin)FQDLGVK_],collision cross section,"charge state: 2, modification: Biotin",460.81 ± 1.3 Å²
same,collision cross section,"charge state: 3, modification: Biotin",516.43 ± 0.96 Å²
ITGKNQVTATK [_ITGK(Butyryl)NQVTATK_],collision cross section,[10],370.52 ± 0.71 Å²
SSGPGGQNVNKVNSK [_SSGPGGQNVNK(Crotonyl)VNSK_],collision cross section,[14],407.39 ± 1.4 Å²
TVSKVDDFLANEAK [_TVSK(Formyl)VDDFLANEAK_],collision cross section,[15],415.84 ± 0.18 Å²
GEVGAGAGPGAQAGPSAKR [_GEVGAGAGPGAQAGPSAK(Succinyl)R_],collision cross section,[1],417.99 ± 0.36 Å²
same,collision cross section,[2],474.67 ± 1.5 Å²
SDDESSQKDIK [_SDDESSQK(Malonyl)DIK_],collision cross section,[7],372.43 ± 0.63 Å²
IQTKAGEATVK [_IQTK(Methyl (K))AGEATVK_],collision cross section,"charge state: 2, modification: Methyl (K)",367.02 ± 0.38 Å²
HVSPVTPPR [_HVSPVT(HexNAc (ST))PPR_],collision cross section,[13],366.95 ± 0.8 Å²
SISQSISGQK [_S(HexNAc (ST))ISQSISGQK_],collision cross section,[13],366.39 ± 0.12 Å²
ILDLKTGTVK [_ILDLK(Propionyl)TGTVK_],collision cross section,[12],359.51 ± 0.33 Å²
YIEIYVQKVNPSR [_YIEIYVQK(Trimethyl (K))VNPSR_],collision cross section,[4],446.57 Å²
same,collision cross section,[5],499.16 ± 1.6 Å²
ASEALLKQLK [_ASEALLK(Succinyl)QLK_],collision cross section,[1],374.59 ± 0.24 Å²
SPSDSGYSYETIGKTTK [_SPSDSGYSYETIGK(Propionyl)TTK_],collision cross section,"charge state: 3, modification: Propionyl",528.1 Å²
DLGKFQVATDALK [_DLGK(Formyl)FQVATDALK_],collision cross section,[15],403.92 ± 0.55 Å²
ASEALLKQLK [_ASEALLK(hydroxyisobutyryl)QLK_],collision cross section,[3],382.21 ± 0.28 Å²
DSSPTTNSKLSALQR [_DSSPTTNSK(GlyGly (K))LSALQR_],collision cross section,[8],434.5 ± 1.6 Å²
same,collision cross section,[9],501.52 ± 0.79 Å²
SDSGKPYYYNSQTK [_SDSGK(Gluratylation)PYYYNSQTK_],collision cross section,"charge state: 2, modification: Glutarylation",430.3 ± 1.5 Å²
same,collision cross section,"charge state: 3, modification: Glutarylation",493.09 Å²
AVPSSPAGSAARGR [_AVPSSPAGSAAR(Methyl (R))GR_],collision cross section,"charge state: 2, modification: Methyl (R)",387.69 ± 1.4 Å²
same,collision cross section,"charge state: 3, modification: Methyl (R)",492.48 ± 1.5 Å²
GTVPDDAVEALADSLGKK [_GTVPDDAVEALADSLGK(Succinyl)K_],collision cross section,[1],459.53 ± 1.1 Å²
same,collision cross section,[2],536.91 ± 2.2 Å²
DFDTALKHYDK [_DFDTALK(hydroxyisobutyryl)HYDK_],collision cross section,[3],409.01 ± 0.39 Å²
same,collision cross section,"charge state: 3, modification: hydroxyisobutyryl",468.72 ± 1.9 Å²
LEQVEKELLR [_LEQVEK(Crotonyl)ELLR_],collision cross section,[14],389.19 ± 0.8 Å²
